Measured values from patent US20220073643A1 (NANJING GENSCRIPT BIOTECH, published 2022).
Where a chain is given by its changes, count along the chain named.

B1: 256C3D3 (antibody, V domains shown)
VH: QAYLQQSGAELVRSGASVKMSCKASGYAFTSHNMHWVKQTPGQGLEWIGYISPGNGYTNYNQKFRGKATLTADTSSSTAYMQIGSLTSEDSAVYFCTRDYYGNSFAYWGQGTLVTVSA
VL: DIVMTQSPSSLTEKAGERVSMSCKSSQSLFNSGNQKNYLTWYQQKPGQPPKLLIYWASTRESGVPDRFTGSGSGTDFTLTISSVQAEDLAVYYCQNNYWFPFTFGAGTKLELK
B2: 259C6F4 (antibody, V domains shown)
VH: B1 VH with A28T, T30S, M34I, S52Y, Y57D, R65K, G84S, T97A, A106V
VL: B1 VL with T5I, R18K, F30L, N97A, W99R
B3: 267H5F12 (antibody, V domains shown)
VH: B1 VH with A28T, G84S, A106T
VL: B1 VL with D76E
B4: 257G7B9 (antibody, V domains shown)
VH: B1 VH with A28T, M34L, S52Y, Y57N, R65K, G84S
VL: B1 VL
B5: 257B1G9 (antibody, V domains shown)
VH: B1 VH with A28T, S52Y, Y57G, R65K, G84S
VL: B1 VL with K14R, N97D, W99R, F100Y
B6: 260F8A6 (antibody, V domains shown)
VH: B1 VH with K23R, A28T, S52Y, Y57N, N59Y, R65K, S77N, G84N, T97V, A106V
VL: B1 VL with I2V, A15T, R18K, F30L, T69I, V84L, A86T, W99M, F100Y
B7: 260G9E8 (antibody, V domains shown)
VH: B1 VH with Y3D, A28T, T30A, S52Y, Y57G, N59K, R65T, G84T, T97A
VL: B1 VL with R18K, S22R, F30L, E87D, N97D, W99M
B8: 259C6F7 (antibody, V domains shown)
VH: B1 VH with A28T, T30S, M34I, S52Y, Y57D, R65K, G84S, T97A, A106V
VL: B1 VL with T5I, R18K, F30L, N97A, W99R
B9: 257F1E11 (antibody, V domains shown)
VH: B1 VH with A28T, M34I, G42R, S52Y, Y57G, R65K, G84S
VL: B1 VL with V91I, N97D, F100Y
B10: 257G7F7 (antibody, V domains shown)
VH: B1 VH with A28T, M34L, S52Y, Y57N, R65K, G84S
VL: B1 VL
B11: 258D11C4 (antibody, V domains shown)
VH: B1 VH with A28T, T30S, S52Y, Y57G, R65K, G84S
VL: B1 VL with E61Q, N97D
B12: 262H9H6 (antibody, V domains shown)
VH: B1 VH with A28T, G84S, A106T
VL: B1 VL with D76E
B13: 253E4F7 (antibody, V domains shown)
VH: EIQLQQSGPELMKPGASVKMSCKASGYSFTSYYIHWVKQSHGKSLEWIGYIDPFNGGTRYNQKFEGKATLTVDKSSTTAYMHLSSLTSEDSTVYYCASLRFLAYWGQGTLVTVSA
VL: DIVMTQSPSSLTVTAGEKVTMTCKSSQSLLNSGNQKNYLTWYQQKPGQPPKVLISRASTRQSGVPDRFTGSGSGTDFTLTISSVQAEDLAVYYCQNDYSYPLTFGAGTKLELK
B14: 273C10E5 (antibody, V domains shown)
VH: QVQLQQSGAELVKPGASVKLSCKASGYTFTSFGINWLRQRPEQGLEWIGWIFPGDGNSKYNENFKGKATLTTDKSSSTAYMQVTRLTSEDSAVYFCARFYYGNSFANWGQGTLVTVSA
VL: B13 VL with T22S, V52L, S55Y, R56W, S58A, Q61E, T69A, S99F, L102F
B15: 266B11F7 (antibody, V domains shown)
VH: QVQMKESGPGLVAPSQSLSITCTVSGFSLTTYGVTWVRQPPGKGLEWLGVIWGDGSTNYHSALTSRLRISKDKSKSQVFLKLSSLQTDDTATYYCAKPGRGNALDYWGQGTSVTVSS
VL: B13 VL with T22R, V52L, I54V, S55Y, R56W, Q61E, I81V, S99I, Y100F
B16: 265E6G2 (antibody, V domains shown)
VH: B1 VH with A28T, H32Y, S52Y, Y57G, R65K, G84S, T97A
VL: B13 VL with I2L, T22S, V52L, S55Y, R56W, Q61E, S83N, V84I, T103P, K113R
B17: 194D3B2 (antibody, V domains shown)
VH: QAYLQQSGAELVRSGASVKMSCKASGYPFTSYNMHWVKQTPGQGLEWVGYIYPGNGGTNYNQKFRDKATLTADTSSSTAYMQISRLTSDDSAVYFCLTGRGFAYWGQGTLVTVSA
VL: B13 VL with T12I, A15P, K18R, T22S, V52L, S55Y, Q61E, A106I
B18: 263E9F3 (antibody, V domains shown)
VH: B13 VH with L4V, M20I, K23R, A24S, H41R, N55S, T92A, L102F
VL: B13 VL with K36E, K51E, V52L, A86T
B19: 271B1B6 (antibody, V domains shown)
VH: QAYLQQSGAELVRSGASVKMSCKASGYTFTNYNIHWVKQTPGQGLEWIGYIYPGNGGNYYNQKFKGKATLTADTSSITAYMQISSLTSEDSAVYFCARDYYGNSFAYWGQGTLVTVSA
VL: B13 VL with T22N, V52L, S55Y, R56W, Q61E, V91I, S99Y
B20: 262C7C10 (antibody, V domains shown)
VH: B19 VH
VL: B13 VL with T22N, V52L, S55Y, R56W, Q61E, V91I, S99Y
B21: 275B2G2 (antibody, V domains shown)
VH: EVMLVESGGGLVKPGGSLKLSCAASGFTFRDYTMSWVRQTPEKRLEWVATSIIGGTYTYYPDSVKGRFTISRDNVKNTLYLQMSSLRSEDTAMYYCSRLGRGNAMDYWGQGTSVTVSS
VL: B13 VL with T22S, V52L, S55Y, R56W, Q61E, L102F, A106S, L112I
B22: 259B4D4 (antibody, V domains shown)
VH: EIQLQQSGPELMKPGASVRISCKASGYSFTSYYMHWMKQSHVKSLEWIGYIDPFNGNTRYNQKFKDKATLTVDKSSTTAYMHLSSLTSEDSAVYFCASLRFFAYWGQGTLVTVSA
VL: B13 VL with T22S, K24N, V52L, S55Y, R56W, T59S, Q61E, S83T, Y100F, K109R
B23: 267B2C5 (antibody, V domains shown)
VH: QVQLKESGPGLVAPSQSLAITCTVSGFSLTTYGVSWVRQPPGKGLEWLGVIWGDGSTHYHSALISRLSIRKDNSKSQVFLKVNSLQTDDTATYYCGKPGRGNAMDYWGQGTSVTVSS
VL: B13 VL with T22S, P49S, V52L, S55Y, R56W, Q61E, S99I, A106G, K109T
B24: 268D7H9 (antibody, V domains shown)
VH: B19 VH with I77S
VL: B13 VL with V3A, T22N, V52L, S55Y, R56W, Q61E, V91I, S99Y, K109T
B25: 273F3D4 (antibody, V domains shown)
VH: B23 VH with A19S, S28A, V82L, G96A
VL: B13 VL with T5S, T22S, P49S, V52L, S55Y, R56W, Q61E, V84M, S99I, K109M
B26: 254A8D5 (antibody, V domains shown)
VH: B21 VH with R30S, D31S, M34V, I53V, G55S, Y60F, N74F, V75A, Y80F, T115S
VL: DIVMTQSPSSLTVTAGEKVTLNCRSSQSLLNSGNQKNYLTWYQQKPGQPPKLLIYWASTRESGVPDRFTGSGSGTDFTLTISSVQADDLAVYYCQNGYSYPFTFGSGTKLEIK
B27: 196A12B10 (antibody, V domains shown)
VH: QIQWVQSGPELKKPRETVKISCKASGYTFTDYSMHWVKQAPGKGLKWMGWINSETGEATYADDFRGRFALSLETSATTAFLQINSLKNEDTGTYFCARFYYGNSFASWGQGTTLTVSS
VL: DIVMTQFPSSLTVTAGEKVTMTCKSSQSLLNGGNQKNYLTWYQQKPGLPPKLLIYWASTRESGVPDRFTGSGSGTEFTLTISSVQAEDLAVYYCQNNYYFPLTFGAGTKLELK

Molecular target: human Claudin18.2 (human)
Test: cell-based or functional assay

Row | Binder | CDC % Relative activity [%] | CDC EC50 [µg/mL]
1 | B1 | 165 | 1.11
2 | B2 | 125 | 1.19
3 | B3 | 172 | 1
4 | B4 | 147 | 1.01
5 | B5 | 487 | 0.305
6 | B6 | 129 | 1.15
7 | B7 | 164 | 1.05
8 | B8 | 117 | 1.27
9 | B9 | 174 | 0.855
10 | B10 | 141 | 1.06
11 | B11 | 142 | 1.05
12 | B12 | 183 | 0.941
13 | B13 | 174 | 1.06
14 | B14 | 67.6 | 2.41
15 | B15 | 97.4 | 1.77
16 | B16 | 526 | 0.327
17 | B17 | 574 | 0.275
18 | B18 | 116 | 1.48
19 | B19 | 145 | 1.12
20 | B20 | 520 | 0.331
21 | B21 | 98.4 | 1.66
22 | B22 | 88.2 | 1.69
23 | B23 | 142 | 1.21
24 | B24 | 140 | 1.23
25 | B25 | 105 | 1.56
26 | B26 | 154 | 1.19
27 | B27 | 93.6 | 1.69
